Results taken from the DeepSol protein solubility set.

experiment: soluble on expression in E. coli; label from the status in PepcDB or PDB records

Sequence | soluble on expression in E. coli
MNMKPESKEAPINIRAKASQRDLIDMAANLVAKSRTDFMLDAACREAQDILLDQRLFILDDEQYDAFLAALDAPITAERQAKINALMNRKSPWE | soluble
MNTNNALMQRRHNAVPRGVGQIHPIFAERAENCRVWDVEGREYLDFAGGIAVLNTGHLHPGIVSAVEAQLKKLSHTCFQVLAYEPYLALCERMNQKVPGDFAKKTLLVTTGSEAVENAVKIARAATKRSGAIAFSGAYHGRTHYTLSLTGKVHPYSAGMGLMPGHVYRALYPCPLHNISDDDAIASIERIFKNDAAPEDIAAIIIEPVQGEGGFYAASPAFMQRLRALCDQHGIMLIADEVQSGAGRTGTLFAMEQMGVAADITTFAKSIAGGFPLAGVTGRADVMDAIAPGGLGGTYAGNPIACAAALAVLDIFEQENLLQKANTLGKTLRDGLMEIAETHREIGDVRGLGAMIAIELFENGDPGKPNAALTADIVTRAREKGLILLSCGPYYNILRILVPLTIEASQIRQGLEIIAQCFDEAKQA | not soluble
MAAPAQQTTQPGGGKRKGKAQYVLAKRARRCDAGGPRQLEPGLQGILITCNMNERKCVEEAYSLLNEYGDDMYGPEKFTDKDQQPSGSEGEDDDAEAALKKEVGDIKASTEMRLRRFQSVESGANNVVFIRTLGIEPEKLVHHILQDMYKTKKKKTRVILRMLPISGTCKAFLEDMKKYAETFLEPWFKAPNKGTFQIVYKSRNNSHVNREEVIRELAGIVCTLNSENKVDLTNPQYTVVVEIIKAVCCLSVVKDYMLFRKYNLQEVVKSPKDPSQLNSKQGNGKEAKLESADKSDQNNTAEGKNNQQVPENTEELGQTKPTSNPQVVNEGGAKPELASQATEGSKSNENDFS | not soluble
MGSDKIHHHHHHMDLMSFKEREISKKDCVELFEDTENFFDILKLADSIRKDIVGDTVTFVKNTNIETTNVCTMGCKFCAFSVSKNSPEAFKLDADEIAKKAVIAKKSGLTEVTIHGGIHPDVDTHFQVETINKVNSATSKLGGIYTHAYSPQEILNGAENAGLSIKEALKMLNEAGLRTIPGTAAEILDDEVRSDICPLKMSTKKWIDIMKTAHKTGIKTTSTIIYGHVEEYKHIVDHLSILKELQEETGGITEFIPMSFLHENTPLYKSGRVTDGASGLYELKLYAIARILFKESIKNIQAPRVKIGTKLSQLILKSGANDLGGTLVEDKVSKAAGSIYEDASVDLMKNAITSIGRIPKERTTLYEIIE | not soluble
LSFQDELMRALNPDVLVVQKRPEGVLPLDELVRRIEGAEPGRKVAFVWVEMDSDKAGRIFYTPPPGQRRGESRWIDPYTGAFVGEPRGEGFFNLMMQLHRFLAMGEYGKQV | not soluble
MSSPGGETSTKQQQELKAQIKIGHYILKETLGVGTFGKVKVGIHETTQYKVAVKILNRQKIKSLDVVGKIRREIQNLSLFRHPHIIRLYQVISTPSDIFMIMEHVSGGELFDYIVKHGRLKTAEARRFFQQIISGVDYCHRHMVVHRDLKPENLLLDEQNNVKIADFGLSNIMTDGDFLRTSCGSPNYAAPEVISGKLYAGPEVDVWSCGVILYALLCGTLPFDDEHVPSLFRKIKSGVFPTPDFLERPIVNLLHHMLCVDPMKRATIKDVIAHEWFQKDLPNYLFPPINESEASIVDIEAVREVTERYHVAEEEVTSALLGDDPHHHLSIAYNLIVDNKRIADETAKLSIEEFYQVTPNKGPGPVHRHPERIAASVSSKITPTLDNTEASGANRNKRAKWHLGIRSQSRPEDIMFEVFRAMKQLDMEWKVLNPYHVIVRRKPDAPAADPPKMSLQLYQVDQRSYLLDFKSLADEESGSASASSSRHASMSMPQKPAGIRGTRTSSMPQAMSMEASIEKMEVHDFSDMSCDVTPPPSPGGAKLSQTMQFFEICAALIGTLAR | not soluble
MGSDKIHHHHHHMKKIVERAPTVEEAIEKVVKKYGLGEGEYTVNVLEKGFHGIFGLFSKEAVVEVQITKAYFERRLKEFLTEILQVVDPEVKITVKSSGRSFFVDVESENAGRLIGKHGKTMGALQHIAMIFLNRLSDTKLNVILDMGDYREKRKKSLEKIVEEAVKKAISEKTKVVLDPMFSFERKIVHKLVRKHRGVISYSVGVEPYRRVVIEYSATRREGRRKHDIKESI | not soluble
MTFAWGRGSHGGAGMRIVQITDTHFSPTKAHFNGNWAPLAAWIEQSGADLVIHTGDLSVDGADRDDDIAFCMDLMREISAPMLLVPGNHDVGHLPGSLQPVNAGRLERWRRLVGPDYWMEDAGSWRLIGLDSLLMGFDDAEEEAQFDWLRTVLESRGGRRVALFAHKPLFVDAPGEGDTGYWSVRPAQRQRLYDLIATHDVALFASGHLHRAWQGKYENTSLVWGPSAALEHHHHHH | soluble
MGSDKIHHHHHHMNLSHLKMMITVANLGSLQKTAEQLNRTQSAVSMALKKLEENAGFALFNRDGYRLELTEQGQHFLRQAEEVVRQQQRLQSLATQLKHGAEPLLTLCYDHTCDSKLWVPSIQHIQQQYPTTELHVDGESQMRALKRIDNGSADLALCPWLPLFRQYGDFETLPVAPFELTVVISTALMKEFGRMPQSRQDLLELPMLVPQNLEIGINLDAVLRLPSQQRIRVNEVNTQFELLMAGFGWGIIPKHIALDALEQGKLVEISIPGFVQQVRLEIHLVRSANRTLGPAANAIWESFA | not soluble
MAHHHHHHMNEDAMKILNKCSGEKKKGEDLNSCNLLEYYKTKYSSIDIEKAKLILKEQFLIPDFREKQLECLNSIKRFEHVLNIMPTGGGKSLIYQVLPLIIEGISIVISPLISLIQDQIISLRNKKIVAETINSSLNKKENERILDILKSQDLGNLKVLYITPETATSGYFIDILYELYINKKISLISIDEVHCISTWGSDFRKSYRNLNKILDICPYVRTYCCTATATKFVEKDIIRNLNFYIFNKDCDNNINNNNINNNNNIHNNNKYDDHNNNCKVLNIVRTSFNRPNLKYIIIYSDLIKDEKKNSVCDIINEKRNKGKIGIIYCFKRNTCDEISKYLREKGIQALSYHAGLTNNTRKRIQQKWISGKTNILVATIAFGMGIDRKDVSFIIHYNLPKSIENYYQESGRCGRSGHISFCYLFYSKEDVEKLSYIIKTSFAHLDMHDVNIEKKYEKEIYNLECVHNLCINEKCIRSQILSYFGETYPNKNLQTNNTSDHNKQTYKNQTHVEKYNFDTANMYHPSDQNKDNLTDEHFCCSFCYDTKGSRIKIQKVINLYENKKGSNISQFYSKGETHEYNYLYTNNGKHKLYDDDTYYSPSGEEPREKRSTNYYNKYGDKYGDKYDDKYDDKYDEKYDDKYGDRKLQEGIYKLNNKKIKGYIPFQSASSIIPKQIRDKGIIEVMKELEKREEELNEKTKNDQEKHKVNKMNLFKSNSMNVKRKHVFSSFKIPRKI | not soluble
AVIGMNEAASALTPSRVSSLPDTQRAAWQEYLARSEAQLSRDKASLAAELAPGQPLPPPPAEGKGADTMPLDKPAAWYTSKAARHVADVIVSFQTPAGGWGKNQPRDGALRLPGQHYTGENVAKVKSGSNDLDAARDRDWHYVGTIDNDATVTEIRFLAQVVSQLAPEEAAPYRDAALKGIEYLLASQFPNGGWPQVWPLEGGYHDAITYNDDALVHVAELLSDIAAGRDGFGFVPPAIRTRALEATNAAIHCIVETQVVQDGKRLGWGQQHDALTLRPTSARNFEPAALSSTESARILLFLMEIEAPSDAVKQAIRGGVAWLNTSVIRDRAWVKSDQGYQLVTEQGAKPLWSRFYSLDGNKPVFGDRDKTIHDDVMGISQERRTGYAWYTTSPQKALSAFTKWEKRS | soluble
MKPYQRQFIEFALNKQVLKFGEFTLKSGRKSPYFFNAGLFNTGRDLALLGRFYAEALVDSGIEFDLLFGPAYKGIPIATTTAVALAEHHDKDLPYCFNRKEAKDHGEGGSLVGSALQGRVMLVDDVITAGTAIRESMEIIQAHGATLAGVLISLDRQERGRGEISAIQEVERDYGCKVISIITLKDLIAYLEEKPDMAEHLAAVRAYREEFGV | soluble
MNELIGFVNGNSVRQKVLSLLASKGEMEGKRISKTLRVVYPTIAKTLEELEEKNLISKKEEIYFLTETGTKIEKMVQQI | not soluble
